Series [1] concerns the target NrnC from Bartonella henselae (Bartonella henselae). Put plainly: SEC-MALS; 1-2 mg/ml (~40-80 uM) protein injected on Superdex 200 Increase 10/300 GL in 25 mM HEPES-NaOH, 150 mM NaCl pH 7.5, room temperature. (SEC sorts molecules by how far they enter the pores of the column.)
Series [2] deals with the molecule itself. Described as above.

In the case of NrnC from Bartonella henselae (enzyme), the stoichiometry N (in general, the number of molecules, sites or subunits per partner or assembly) in series [1] came to 8.

B1: NrnC homolog from Okeania (Cyanobacteria) (enzyme)
chain: MSDFQVCDRDLTEAILSDYLQADSIAVDTETMGLLPWRDRLCLVQLCDAQGKVTAIRIEKGQQEAPNLKQLMEATGIVKIFHFARFDVAMLQHHLDIKVSPIFCTKIASKLARTYTGKHGLKDLVMELEKVELDKSAQSSDWGNAENLTEEQLSYAANDVRYLLSVKEKLIKMLKREERWELAQQCFECLPVFVGLDLLQYKDIFEH
B1: the “stoichiometry N” value in series [2] worked out at 8.

The record behind these values is article PMC11706625, “Structural and bioinformatics analyses identify deoxydinucleotide-specific nucleases and their association with genomic islands in gram-positive bacteria” (Nucleic Acids Research, 2025).
